The values below come from paper PMC9405973, “Altered Conformational Landscape upon Sensing Guanine Nucleotides in a Disease Mutant of Elongation Factor-like 1 (EFL1) GTPase” (Biomolecules, 2022).

Values joined by “and” are separate entries in the source; they are usually repeats but may differ in a detail not shown here. Equal entries are not always repeated.

One assay deals with T1, Efl1 R1086Q (Saccharomyces cerevisiae, UniProt P53893, R1086Q).
T1 construct: made in house; host or cells: Saccharomyces cerevisiae
The assay is described as follows: Isothermal titration calorimetry (ITC): binding of guanine nucleotides or Sdo1 to Efl1 R1086Q. Here is the method: All calorimetric measurements were carried out using MicroCal^TM iTC200 System (GE Healthcare, Northampton, MA, USA) in a temperature range of 25–35 °C. Experiments were performed in a buffer consisting of 50 mM Tris-HCl (pH 8.0), 150 mM NaCl, 100 µM DTT, and 5% glycerol. In the titrations with Mg^2+-bound nucleotides, both the ligand and protein solutions contained 5 mM MgCl2. In the case of titrations with Mg^2+-free nucleotide, both the ligand and protein solutions were supplemented with 2 mM EDTA to sequester any residual trace of metal ions in solution. Protein samples and ligands were prepared in the exact same buffer prior to each titration. Protein concentration in the cell comprised 30–50 µM GTPase, while the ligand concentration in the syringe was 2–3 mM for GTP, MgGTP, GDP, and MgGDP. To ensure measuring the interaction of the complex Efl1 R1086Q•Sdo1 with the nucleotide, an eight-fold concentration excess of Sdo1 was used compared with that of the enzyme. […] The titration schedule consisted of 15–20 consecutive injections of the ligand with 5 min intervals between injections and a stirring rate of 700 rpm. The dilution heat of the ligand was obtained by adding the ligand to a buffer solution under identical conditions and with the same injection schedule used for the protein sample. All samples were degassed for 10 min prior to the experiment.
The binding isotherms obtained for the isolated GTPase in the presence of Mg(II) were analysed using a ternary model in which the protein can bind to the free nucleotide (G(D)TP) or that bound to one magnesium ion (MgG(D)TP); additionally, GTP may also exist in the form of Mg2GTP, which is not recognised by the protein. The derivation of this coupled-equilibria model can be reviewed in [6, 31]. The binding constant (Kb), the enthalpy change (∆Hb), and the stoichiometry (n) were obtained with the non-linear routines implemented in Origin 5.0 (OriginLab, Co., Northampton, MA, USA) using a one-binding-site model as described in [32, 33]. The heterotropic cooperativity for the binding of guanine nucleotides and Sdo1 to Efl1 R1086Q were calculated as previously described in [6, 32]. The cooperative effects of Mg(II) on the binding of guanine nucleotides to Efl1 R1086Q alone and bound to Sdo1 were calculated as follows:κ = KE-MG/KE-G κ = KES-MG/KES-G Δh = ΔHE-MG − ΔHE-G Δh = ΔHES-MG − ΔHES-G where subscripts E-MG and E-G stand for the association of the metal-bound and metal-free guanine nucleotide with mutant Efl1, respectively. Corresponding expressions applied to the heterotropic cooperativity of the binding of nucleotides to the preformed complex, Efl1•Sdo1 (ES).
The impact of Sdo1 on the binding of Efl1 R1086Q to guanine nucleotides in the presence of magnesium ions is contained in KES-MG and ΔHES-MG relative to the KE-S and ΔHE-S values; analogous ratios report the effects in the absence of Mg(II):κ = KES-MG/KE-S κ = KES-G/KE-G Δh = ΔHES-MG − ΔHE-S Δh = ΔHES-G − ΔHE-G
The corresponding cooperative entropy change was calculated as:TΔs = Δh − Δg = Δh + RTlnκ
The detailed methodology and equations to compute the changes in the accessible surface area (∆ASA) of the GTPase upon binding to nucleotides and the ∆S energetic-based parameters are reported in [6]. Briefly, the water-accessible areas (ASAs) were computed using programme NACCESS, while the changes in accessible surface area (ΔASA) upon the formation of each GTPase–nucleotide complex were estimated considering the difference between the complex and the sum of the free interacting partners. The calculated polar (ΔASAp) and apolar (ΔASAap) area changes were subsequently used to estimate the free molecular partners. […]

The target in assay [1] is T2, S. cerevisiae Efl1 R1086Q (S. cerevisiae, UniProt P53893 1-1110, R1086Q).
T2 construct: Elongation Factor-like 1 (Efl1) GTPase of S. cerevisiae with the mutation R1086Q, equivalent to human EFL1 R1095Q; also called mutant Efl1; mutant R1086Q; source: recombinantly expressed in S. cerevisiae, purified
T2 sequence (looked up): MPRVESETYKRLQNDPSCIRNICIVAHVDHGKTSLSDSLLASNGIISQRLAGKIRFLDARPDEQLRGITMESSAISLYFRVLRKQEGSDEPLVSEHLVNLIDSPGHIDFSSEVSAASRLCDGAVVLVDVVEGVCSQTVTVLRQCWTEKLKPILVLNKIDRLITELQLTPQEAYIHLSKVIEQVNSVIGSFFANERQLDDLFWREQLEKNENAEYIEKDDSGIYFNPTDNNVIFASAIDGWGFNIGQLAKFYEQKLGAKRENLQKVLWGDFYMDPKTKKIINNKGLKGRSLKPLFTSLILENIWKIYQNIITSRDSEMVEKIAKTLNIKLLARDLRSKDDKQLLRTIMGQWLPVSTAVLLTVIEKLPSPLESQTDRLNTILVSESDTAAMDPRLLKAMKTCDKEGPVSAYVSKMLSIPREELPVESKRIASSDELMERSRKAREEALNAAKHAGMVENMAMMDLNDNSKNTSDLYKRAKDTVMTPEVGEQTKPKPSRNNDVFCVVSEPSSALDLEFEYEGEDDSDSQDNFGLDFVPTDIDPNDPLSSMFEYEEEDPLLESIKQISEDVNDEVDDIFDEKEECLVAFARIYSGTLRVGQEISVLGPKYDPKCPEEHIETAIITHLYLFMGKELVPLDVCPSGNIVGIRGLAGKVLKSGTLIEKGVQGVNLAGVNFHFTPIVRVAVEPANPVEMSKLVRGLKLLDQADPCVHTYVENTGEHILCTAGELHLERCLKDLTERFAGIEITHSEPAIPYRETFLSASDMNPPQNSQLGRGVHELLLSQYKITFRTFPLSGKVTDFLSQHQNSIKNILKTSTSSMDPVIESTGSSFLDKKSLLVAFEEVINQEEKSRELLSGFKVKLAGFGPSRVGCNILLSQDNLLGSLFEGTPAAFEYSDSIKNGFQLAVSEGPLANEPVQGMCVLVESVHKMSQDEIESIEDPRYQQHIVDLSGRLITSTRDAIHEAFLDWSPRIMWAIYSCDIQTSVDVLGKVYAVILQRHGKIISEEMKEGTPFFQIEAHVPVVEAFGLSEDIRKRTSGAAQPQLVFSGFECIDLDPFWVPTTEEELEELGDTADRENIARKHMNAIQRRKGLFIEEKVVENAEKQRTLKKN
The assay is described as follows: ITC; 35 °C; GTPase in the cell (30-50 µM), Sdo1 as ligand; 50 mM Tris-HCl pH 8.0, 150 mM NaCl, 100 µM DTT, 5% glycerol; one-binding-site model. The conditions noted are these: both partners purified. In general terms: Isothermal titration calorimetry measures the heat released or taken up as one component is titrated into another.

Assay [2] deals with T2, S. cerevisiae Efl1 R1086Q. Put plainly: ITC; coupled equilibria at 30 °C with MgGDP (5 mM MgCl2); heterotropic cooperativity calculated from the titrations of Efl1 R1086Q and of Efl1 R1086Q•Sdo1. The conditions noted are these: both partners purified.
Assay [3] has as its target T2, S. cerevisiae Efl1 R1086Q. The assay is described as follows: ITC; 30 °C; GTPase in the cell (30-50 µM), Sdo1 as ligand; 50 mM Tris-HCl pH 8.0, 150 mM NaCl, 100 µM DTT, 5% glycerol; one-binding-site model. To be noted: both partners purified.
The target of assay [4] is T2, S. cerevisiae Efl1 R1086Q. Put plainly: ITC; 25 °C; GTPase in the cell (30-50 µM), Sdo1 as ligand; 50 mM Tris-HCl pH 8.0, 150 mM NaCl, 100 µM DTT, 5% glycerol; one-binding-site model. The conditions noted are these: both partners purified.
A further assay has as its system wild-type Efl1. To be noted: cited from earlier work.

B1: Yeast SBDS (Sdo1) (natural protein, S. cerevisiae, UniProt Q07953 1-250, looked up)
chain: MPINQPSGQIKLTNVSLVRLKKARKRFEVACYQNKVQDYRKGIEKDLDEVLQIHQVFMNVSKGLVANKEDLQKCFGTTNVDDVIEEIMHKGEIQLSEKERQLMLNKVNNEMLTIVSAKCINPVSKKRYPPTMIHKALQELKFSPVINKPAKLQALEAIKLLVSKQIIPIVRAKMKVKVAISEPSRQPELIEKISKLIASSPGESTKPELDPWTCTGLIDPVNYRDLMTLCDKKGTVQVLDMAVIDNTTHN
notes: Sdo1, the yeast orthologue of SBDS; also called yeast Shwachman-Bodian-Diamond syndrome protein; source: E. coli C41, purified
With B1, the “-TΔSb” value was -3.1 kcal/mol with Efl1 R1086Q (ligand Sdo1, 25 °C); -1.3 kcal/mol in the assay with Efl1 R1086Q (ligand Sdo1, 30 °C); 0.6 kcal/mol in the assay with Efl1 R1086Q (ligand Sdo1, 35 °C); 4.4 kcal/mol with wild-type Efl1 (ligand Sdo1, 30 °C). The ΔGb is -7.4 kcal/mol in the assay with Efl1 R1086Q (ligand Sdo1, 25 °C); -7.6 kcal/mol with Efl1 R1086Q (ligand Sdo1, 30 °C); -8.1 kcal/mol with Efl1 R1086Q (ligand Sdo1, 35 °C); -9.0 kcal/mol in the assay on wild-type Efl1 (ligand Sdo1, 30 °C). The Kd with Efl1 R1086Q (ligand Sdo1, 30 °C, read-out: Kd) was 3000 nM; in assay [1], 1800 ± 200 nM; in assay [3] it was 3.4 ± 0.6 µM; in assay [4] it was 3.9 ± 0.7 µM; on wild-type Efl1 (ligand Sdo1, 30 °C), 300 nM. Moreover, the ΔCpb was −440 cal mol^−1 K^−1 and −440 ± 23 cal mol^−1 K^−1 with Efl1 R1086Q (ligand Sdo1, from ΔHb at 25–35 °C); −860 cal mol^−1 K^−1 and −860 ± 31 cal mol^−1 K^−1 in the assay with wild-type Efl1 (ligand Sdo1). Moreover, the Ka was determined as 543000 ± 76000 M⁻¹ in assay [1], 288000 ± 56000 M⁻¹ in assay [3] and 256000 ± 47000 M⁻¹ in assay [4]. Further, the results for the dH in assay [1], in assay [3] and in assay [4] were -8.7 ± 0.1 kcal/mol, -6.3 ± 0.2 kcal/mol and -4.3 ± 0.1 kcal/mol, respectively. For the same molecule, the “fold decrease of the interaction with MgGDP against no nucleotide” value in assay [2] is 3 fold. The ΔHb in the assay with wild-type Efl1 (ligand Sdo1, 30 °C) was -13.4 ± 0.4 kcal/mol.

Broadly, the Kd is the free concentration of one partner at which half of the binding sites on the other are occupied at equilibrium, for simple one-to-one binding.
